Our source for the self-cleavage values is the RNAGym collection of RNA variant scans (doi:10.7554/elife.90254).

The chains are these.
B1: LINE1-full (parent)
chain: UACGUAGGUGGUUUUCCCCUGAUAGUGCUAAGGGGGCCUGGAAGUUUGGACUGGGCAGAGCUCAACACAGCGUGGCAAAGUGGCUGUGGCUAGACUGCCUCUCUGGAUUCCUCGUCACUCAGCAGGGCAUCUCUGAGAGAAAUGCC

The data set covers variants of B1. Kind of data set: self-cleavage, relative activity (ratio to wild type); higher = more cleavage; in vitro, sequencing; the parent is a self-cleaving ribozyme.
As to UACGUAGGUGGUUUUCCCCUGAUAGUGCUAAGGGGGCCUGGAAGUUUGGACUGGGCAGAGCUCAACACAGCGUGGCAAAGUGGCUGUGGCUAGACUGCCUCUCUGAAUUCCUCGUCACUCGGCAGGGCAUCUCUGAGAGAAAUGCC [G106A A121G], the self-cleavage turned out to be 1.78.

As for UACGUAGGUGGUUUUCCCCUGAUAGUGCUAAGGGGGCCUGGAAGUUUGGACUGGGCAGAGCUCAACACAGCGUGGCAAAGUGGCUGUGGCUAGACUGCCUCUCUAGAUCCCUCGUCACUCAGCAGGGCAUCUCUGAGAGAAAUGCC [G105A U109C], the self-cleavage was 1.46.

With UACGUAGGUGGUUUUCCCCUGAUAGUGCUAAGGGGGCCUGGAAGUUUGGACUGGGCAGAGCUCAACACAGCGUGGCAAAGUGGCUGUGGCUAGACUGCCUCUCUAGAUUCCUCGUCACUCAGCAGGGCACCUCUGAGAGAAAUGCC [G105A U130C], the self-cleavage was found to be 0.96.

Consider UACGUAGGUGGUUUUCCCCUGAUAGUGCUAAGGGGGCCUGGAAGUUUGGACUGGGCAGAGCUCAACACAGCGUGGCAAAGUGGCUGUGGCUAGACUGCCUCUCUUGCUUCCUCGUCACUCAGCAGGGCAUCUCUGAGAGAAAUGCC [G105U A107C], for which the self-cleavage came out at 2.34.

As to UACGUAGGUGGUUUUCCCCUGAUAGUGCUAAGGGGGCCUGGAAGUUUGGACUGGGCAGAGCUCAACACAGCGUGGCAAAGUGGCUGUGGCUAGACUGCCUCUCUAGAUUCCUCGUCACUCAGCAGGGCCUCUCUGAGAGAAAUGCC [G105A A129C], the self-cleavage was 2.69.

With UACGUAGGUGGUUUUCCCCUGAUAGUGCUAAGGGGGCCUGGAAGUUUGGACUGGGCAGAGCUCAACACAGCGUGGCAAAGUGGCUGUGGCUAGACUGCCUCUCCGGAUUCCUCGUCACUCAGCAGGGCAGCUCUGAGAGAAAUGCC [U104C U130G], the self-cleavage came to 1.5.

As for UACGUAGGUGGUUUUCCCCUGAUAGUGCUAAGGGGGCCUGGAAGUUUGGACUGGGCAGAGCUCAACACAGCGUGGCAAAGUGGCUGUGGCUAGACUGCCUCUCUUGAUUCCUCGUCACUCAGCAGGGCAUCCCUGAGAGAAAUGCC [G105U U132C], the self-cleavage stood at 0.

Take UACGUAGGUGGUUUUCCCCUGAUAGUGCUAAGGGGGCCUGGAAGUUUGGACUGGGCAGAGCUCAACACAGCGUGGCAAAGUGGCUGUGGCUAGACUGCCUCUCCGGAUUCCUCGUCACUCAGCAGGGCAUCCCUGAGAGAAAUGCC [U104C U132C]: the self-cleavage was 1.63.

On to UACGUAGGUGGUUUUCCCCUGAUAGUGCUAAGGGGGCCUGGAAGUUUGGACUGGGCAGAGCUCAACACAGCGUGGCAAAGUGGCUGUGGCUAGACUGCCUCUCUUGAUUCCUCGUCACUCAGCAGGGCAUCUCUGAGAGAAAAGCC [G105U U143A], for which the self-cleavage is 1.34.

For UACGUAGGUGGUUUUCCCCUGAUAGUGCUAAGGGGGCCUGGAAGUUUGGACUGGGCAGAGCUCAACACAGCGUGGCAAAGUGGCUGUGGCUAGACUGCCUCUCUUGAUUCCUCGUCACUCAGCAGGGCAUCUCUGGGAGAAAUGCC [G105U A136G], the self-cleavage turned out to be 1.47.

Regarding UACGUAGGUGGUUUUCCCCUGAUAGUGCUAAGGGGGCCUGGAAGUUUGGACUGGGCAGAGCUCAACACAGCGUGGCAAAGUGGCUGUGGCUAGACUGCCUCUCUCGAUUCCUCGUCACUCAGCAGGGCAUCUCUGAGAGGAAUGCC [G105C A140G], the self-cleavage is 1.83.

Regarding UACGUAGGUGGUUUUCCCCUGAUAGUGCUAAGGGGGCCUGGAAGUUUGGACUGGGCAGAGCUCAACACAGCGUGGCAAAGUGGCUGUGGCUAGACUGCCUCUCUAGACUCCUCGUCACUCAGCAGGGCAUCUCUGAGAGAAAUGCC [G105A U108C], the self-cleavage is 1.56.

UACGUAGGUGGUUUUCCCCUGAUAGUGCUAAGGGGGCCUGGAAGUUUGGACUGGGCAGAGCUCAACACAGCGUGGCAAAGUGGCUGUGGCUAGACUGCCUCUCUUGAUUCCUCGACACUCAGCAGGGCAUCUCUGAGAGAAAUGCC [G105U U115A]: the self-cleavage came to 1.72.

As to UACGUAGGUGGUUUUCCCCUGAUAGUGCUAAGGGGGCCUGGAAGUUUGGACUGGGCAGAGCUCAACACAGCGUGGCAAAGUGGCUGUGGCUAGACUGCCUCUCUAGAUUCCUCGUCACUCAGCAGGGCAUCUCUGAGAGAAAUGCC [G105A], the self-cleavage worked out at 1.43.

For the variant UACGUAGGUGGUUUUCCCCUGAUAGUGCUAAGGGGGCCUGGAAGUUUGGACUGGGCAGAGCUCAACACAGCGUGGCAAAGUGGCUGUGGCUAGACUGCCUCUCUCGAUUCCUCGUCACUCAGCAGGGCAUCUCUGAGAGAAAUGCC [G105C], the self-cleavage was determined as 1.59.

Turning to UACGUAGGUGGUUUUCCCCUGAUAGUGCUAAGGGGGCCUGGAAGUUUGGACUGGGCAGAGCUCAACACAGCGUGGCAAAGUGGCUGUGGCUAGACUGCCUCUCUUGAUUCCUCGUCACUCAGCAGGGCAUCUCUGAGAGAAAUGCC [G105U], the self-cleavage came out at 1.37.

Regarding UACGUAGGUGGUUUUCCCCUGAUAGUGCUAAGGGGGCCUGGAAGUUUGGACUGGGCAGAGCUCAACACAGCGUGGCAAAGUGGCUGUGGCUAGACUGCCUCUCUUGAUUCCUCGUCGCUCAGCAGGGCAUCUCUGAGAGAAAUGCC [G105U A117G], the self-cleavage is 1.74.

For the variant UACGUAGGUGGUUUUCCCCUGAUAGUGCUAAGGGGGCCUGGAAGUUUGGACUGGGCAGAGCUCAACACAGCGUGGCAAAGUGGCUGUGGCUAGACUGCCUCUCGGGAUUCCUCGUCACUCAGCAGGGCAUCUCUGAGAGGAAUGCC [U104G A140G], the self-cleavage came out at 0.73.

UACGUAGGUGGUUUUCCCCUGAUAGUGCUAAGGGGGCCUGGAAGUUUGGACUGGGCAGAGCUCAACACAGCGUGGCAAAGUGGCUGUGGCUAGACUGCCUCUCUAGAUUCCUCGUCACUCUGCAGGGCAUCUCUGAGAGAAAUGCC [G105A A121U]: the self-cleavage was 1.46.

As for UACGUAGGUGGUUUUCCCCUGAUAGUGCUAAGGGGGCCUGGAAGUUUGGACUGGGCAGAGCUCAACACAGCGUGGCAAAGUGGCUGUGGCUAGACUGCCUCUCUAGAUUCCUCGUCACUCAGCAGGGCAUCUCUGGGAGAAAUGCC [G105A A136G], the self-cleavage worked out at 1.28.

Regarding UACGUAGGUGGUUUUCCCCUGAUAGUGCUAAGGGGGCCUGGAAGUUUGGACUGGGCAGAGCUCAACACAGCGUGGCAAAGUGGCUGUGGCUAGACUGCCUCUCUGAAUUCCUCGUCACUCAGCAGGGCAUCUCCGAGAGAAAUGCC [G106A U134C], the self-cleavage stood at 1.08.

Take UACGUAGGUGGUUUUCCCCUGAUAGUGCUAAGGGGGCCUGGAAGUUUGGACUGGGCAGAGCUCAACACAGCGUGGCAAAGUGGCUGUGGCUAGACUGCCUCUCUCGAUUCCUCGUCACUCAGCAGGGCAUCCCUGAGAGAAAUGCC [G105C U132C]: the self-cleavage stood at 1.53.

In the case of UACGUAGGUGGUUUUCCCCUGAUAGUGCUAAGGGGGCCUGGAAGUUUGGACUGGGCAGAGCUCAACACAGCGUGGCAAAGUGGCUGUGGCUAGACUGCCUCUCGGGAUUCCUCGACACUCAGCAGGGCAUCUCUGAGAGAAAUGCC [U104G U115A], the self-cleavage stood at 0.87.

Turning to UACGUAGGUGGUUUUCCCCUGAUAGUGCUAAGGGGGCCUGGAAGUUUGGACUGGGCAGAGCUCAACACAGCGUGGCAAAGUGGCUGUGGCUAGACUGCCUCUCUGAAUUCCUCGUCACUCAGCAGGGUAUCUCUGAGAGAAAUGCC [G106A C128U], the self-cleavage was found to be 1.7.

With UACGUAGGUGGUUUUCCCCUGAUAGUGCUAAGGGGGCCUGGAAGUUUGGACUGGGCAGAGCUCAACACAGCGUGGCAAAGUGGCUGUGGCUAGACUGCCUCUCUAGAUUCCUCAUCACUCAGCAGGGCAUCUCUGAGAGAAAUGCC [G105A G114A], the self-cleavage came to 0.75.

As to UACGUAGGUGGUUUUCCCCUGAUAGUGCUAAGGGGGCCUGGAAGUUUGGACUGGGCAGAGCUCAACACAGCGUGGCAAAGUGGCUGUGGCUAGACUGCCUCUCUAGAUUCCUCCUCACUCAGCAGGGCAUCUCUGAGAGAAAUGCC [G105A G114C], the self-cleavage was determined as 1.42.

On to UACGUAGGUGGUUUUCCCCUGAUAGUGCUAAGGGGGCCUGGAAGUUUGGACUGGGCAGAGCUCAACACAGCGUGGCAAAGUGGCUGUGGCUAGACUGCCUCUCGGGAUUCCUCGUCACUCAGCAGGGCACCUCUGAGAGAAAUGCC [U104G U130C], for which the self-cleavage was found to be 0.75.

In the case of UACGUAGGUGGUUUUCCCCUGAUAGUGCUAAGGGGGCCUGGAAGUUUGGACUGGGCAGAGCUCAACACAGCGUGGCAAAGUGGCUGUGGCUAGACUGCCUCUCUGAAUUCCUCGUCACUCAGCAGGGCAUCUCUGAGAGAAACGCC [G106A U143C], the self-cleavage amounted to 1.51.

Regarding UACGUAGGUGGUUUUCCCCUGAUAGUGCUAAGGGGGCCUGGAAGUUUGGACUGGGCAGAGCUCAACACAGCGUGGCAAAGUGGCUGUGGCUAGACUGCCUCUCUUGAUUCCUCGUCACCCAGCAGGGCAUCUCUGAGAGAAAUGCC [G105U U119C], the self-cleavage turned out to be 1.92.

Take UACGUAGGUGGUUUUCCCCUGAUAGUGCUAAGGGGGCCUGGAAGUUUGGACUGGGCAGAGCUCAACACAGCGUGGCAAAGUGGCUGUGGCUAGACUGCCUCUCUGAAUUCCUCGUCACUCAGCAGGGCAUCUCUGAGAGAGAUGCC [G106A A141G]: the self-cleavage came out at 1.16.

Regarding UACGUAGGUGGUUUUCCCCUGAUAGUGCUAAGGGGGCCUGGAAGUUUGGACUGGGCAGAGCUCAACACAGCGUGGCAAAGUGGCUGUGGCUAGACUGCCUCUCUGAAUUCCUCGUCACUCAGCAGGUCAUCUCUGAGAGAAAUGCC [G106A G127U], the self-cleavage is 1.49.

In the case of UACGUAGGUGGUUUUCCCCUGAUAGUGCUAAGGGGGCCUGGAAGUUUGGACUGGGCAGAGCUCAACACAGCGUGGCAAAGUGGCUGUGGCUAGACUGCCUCUCUGAAUUCCUCGUCACUCAGCUGGGCAUCUCUGAGAGAAAUGCC [G106A A124U], the self-cleavage was found to be 1.54.

In the case of UACGUAGGUGGUUUUCCCCUGAUAGUGCUAAGGGGGCCUGGAAGUUUGGACUGGGCAGAGCUCAACACAGCGUGGCAAAGUGGCUGUGGCUAGACUGCCUCUCUGAAUUCCUCGUCACUCAGCAGGGCAUCGCUGAGAGAAAUGCC [G106A U132G], the self-cleavage was 1.67.

Take UACGUAGGUGGUUUUCCCCUGAUAGUGCUAAGGGGGCCUGGAAGUUUGGACUGGGCAGAGCUCAACACAGCGUGGCAAAGUGGCUGUGGCUAGACUGCCUCUCUGAAUUCCUCGUCACUCAGCAGGGCAUCACUGAGAGAAAUGCC [G106A U132A]: the self-cleavage came out at 0.61.

Consider UACGUAGGUGGUUUUCCCCUGAUAGUGCUAAGGGGGCCUGGAAGUUUGGACUGGGCAGAGCUCAACACAGCGUGGCAAAGUGGCUGUGGCUAGACUGCCUCUCUGAAUUCCUCGUCACUCAGCAGGGCAUCUCUGAGAGAAAUGCC [G106A], for which the self-cleavage is 1.48.

UACGUAGGUGGUUUUCCCCUGAUAGUGCUAAGGGGGCCUGGAAGUUUGGACUGGGCAGAGCUCAACACAGCGUGGCAAAGUGGCUGUGGCUAGACUGCCUCUCUGCAUUCCUCGUCACUCAGCAGGGCAUCUCUGAGAGAAAUGCC [G106C]: the self-cleavage is 1.37.

On to UACGUAGGUGGUUUUCCCCUGAUAGUGCUAAGGGGGCCUGGAAGUUUGGACUGGGCAGAGCUCAACACAGCGUGGCAAAGUGGCUGUGGCUAGACUGCCUCUCUGUAUUCCUCGUCACUCAGCAGGGCAUCUCUGAGAGAAAUGCC [G106U], for which the self-cleavage was determined as 1.05.

Take UACGUAGGUGGUUUUCCCCUGAUAGUGCUAAGGGGGCCUGGAAGUUUGGACUGGGCAGAGCUCAACACAGCGUGGCAAAGUGGCUGUGGCUAGACUGCCUCUCCGGAUUCCUCGUCACUCAGCAGGGCAUCUCCGAGAGAAAUGCC [U104C U134C]: the self-cleavage was 1.62.

As for UACGUAGGUGGUUUUCCCCUGAUAGUGCUAAGGGGGCCUGGAAGUUUGGACUGGGCAGAGCUCAACACAGCGUGGCAAAGUGGCUGUGGCUAGACUGCCUCUCGGGAUUCCUUGUCACUCAGCAGGGCAUCUCUGAGAGAAAUGCC [U104G C113U], the self-cleavage was 0.83.
